Measured values: the RNAGym collection of RNA variant scans (doi:10.7554/elife.80360)

B1: CPEB3 Ribozyme (parent)
chain: GGGGGCCACAGCAGAAGCGUUCACGUCGCGGCCCCUGUCAGAUUCUGGUGAAUCUGCGAAUUCUGCUGU

Variants of: B1
Assay: self-cleavage, relative activity (ratio to wild type); higher = more cleavage; co-transcriptional

Variant	self-cleavage
GGGGGCCACAGCCGAAGCGUUCACGUCGCGGCCCCUGUCAGAUUCUGGUGAAUCUGAGAAUUCUGCUGU [A13C C57A]	0.276
GGGGGCCACAGCCGAAGCGUUCACGUCGCGGCCCCUGUCAGAUUCUGGUGAAUCUGCGGAUUCUGCUGU [A13C A59G]	0.794
GGGGGCCACAGCCGAAGCGUUCACGUCGCGGCCCCUGUCAGAUUCUGGUGAAUCUGCGUAUUCUGCUGU [A13C A59U]	0.479
GGGGGCCACAGCCGAAGCGUUCACGUCGCGGCCCCUGUCAGAUUCUGGUGAAUCUGCGCAUUCUGCUGU [A13C A59C]	0.395
GGGGGCCACAGCCGAAGCGUUCACGUCGCGGCCCCUGUCAGUUUCUGGUGAAUCUGCGAAUUCUGCUGU [A13C A42U]	0.561
GGGGGCCACAGCCGAAGCGUUCACGUCGCGGCCCCUGUCAGGUUCUGGUGAAUCUGCGAAUUCUGCUGU [A13C A42G]	0.506
GGGGGCCACAGCCGAAGCGUUCACCUCGCGGCCCCUGUCAGAUUCUGGUGAAUCUGCGAAUUCUGCUGU [A13C G25C]	0.0875
GGGGGCCACAGCCCAAGCGUUCACGUCGCGGCCCCUGUCAGAUUCUGGUGAAUCUGCGAAUUCUGCUGU [A13C G14C]	0.228
GGGGGCCACAGCCUAAGCGUUCACGUCGCGGCCCCUGUCAGAUUCUGGUGAAUCUGCGAAUUCUGCUGU [A13C G14U]	0.22
GGGGGCCACAGCCAAAGCGUUCACGUCGCGGCCCCUGUCAGAUUCUGGUGAAUCUGCGAAUUCUGCUGU [A13C G14A]	0.251
GGGGGCCACAGCCGAAGCGUUCACGUCGCGGCCCCUGUUAGAUUCUGGUGAAUCUGCGAAUUCUGCUGU [A13C C39U]	0.555
GGGGGCCACAGCCGAAGCGUUCACGUCGCGGCCCCUGUCAGAUUCUUGUGAAUCUGCGAAUUCUGCUGU [A13C G47U]	0.959
GGGGGCCACAGCCGAAGCGUUCACGUCGCGGCCCCUGUCAGAUUCUCGUGAAUCUGCGAAUUCUGCUGU [A13C G47C]	0.928
GGGGGCCACAGCCGAAGCGUUCACGUCGCGGCCCCUGUCUGAUUCUGGUGAAUCUGCGAAUUCUGCUGU [A13C A40U]	0.23
GGGGGCCACAGCCGAAGCGUUCACGUCGCGGCCCCUGUCCGAUUCUGGUGAAUCUGCGAAUUCUGCUGU [A13C A40C]	0.247
GGGGGCCACAGCCGAAGCGUUCACGUCGCGGCCCCUGUCAGAUUCUGGUGAAUCUGCGAAUUCUCCUGU [A13C G65C]	0.278
GGGGGCCACAGCCGAAGCGUUCACGUCGCGGCCCCUGUCAGAUUCUGGUGAAUCUGCGAAUUCUACUGU [A13C G65A]	0.431
GGGGGCCACAGCCGAAGCGUUCACGUCGCGGCCCCUAUCAGAUUCUGGUGAAUCUGCGAAUUCUGCUGU [A13C G37A]	0.14
GGGGGCCACAGCCGAAGCGUUCACGUCGCGGCCCCUUUCAGAUUCUGGUGAAUCUGCGAAUUCUGCUGU [A13C G37U]	0.225
GGGGGCCACAGCCGAAGCGUUCACGUCUCGGCCCCUGUCAGAUUCUGGUGAAUCUGCGAAUUCUGCUGU [A13C G28U]	0.116

Variant	self-cleavage
GGGGGCCACAGCCGAAGCGUUCACGUCCCGGCCCCUGUCAGAUUCUGGUGAAUCUGCGAAUUCUGCUGU [A13C G28C]	0.149
GGGGGCCACAGCCGAAGCGUUCACGUCACGGCCCCUGUCAGAUUCUGGUGAAUCUGCGAAUUCUGCUGU [A13C G28A]	0.108
GGGGGCCACAGCCGAAGCGUUCACGUUGCGGCCCCUGUCAGAUUCUGGUGAAUCUGCGAAUUCUGCUGU [A13C C27U]	0.15
GGGGGCCACAGCCGAAGCGUUCACGUAGCGGCCCCUGUCAGAUUCUGGUGAAUCUGCGAAUUCUGCUGU [A13C C27A]	0.145
GGGGGCCACAGCCGGAGCGUUCACGUCGCGGCCCCUGUCAGAUUCUGGUGAAUCUGCGAAUUCUGCUGU [A13C A15G]	0.662
GGGGGCCACAGUAGAAGCGUUCACGUCGCGGCCCCUGUCAGAUUCUGGUGAAUCUGCGAAUUCUGCUGC [C12U U69C]	1.07
GGGGGCCACAGCCGAAGCGUUCACGUCGCGGCCGCUGUCAGAUUCUGGUGAAUCUGCGAAUUCUGCUGU [A13C C34G]	0.498
GGGGGCCACAGCCGAAGCUUUCACGUCGCGGCCCCUGUCAGAUUCUGGUGAAUCUGCGAAUUCUGCUGU [A13C G19U]	0.138
GGGGGCCACAGCCGAAGCGUUCACGUCGCGGCCCCUGUCAGAUUCUGGUGAAUCUGCGAAUUCUGUUGU [A13C C66U]	0.465
GGGGGCCACAGCCGAAGCGUUCACGUCGCGGCCCCUGUCAGAUUCUGGUGAAUCUGCGAAUUCUGGUGU [A13C C66G]	0.862
GGGGGCCACAGCCGAAGCGUUCACGUCGCGGCCCCUGUCAGAUUCUGGUGAAUCUGCGAAUUCUGAUGU [A13C C66A]	0.48
GGGGGCCACAGCCGAACCGUUCACGUCGCGGCCCCUGUCAGAUUCUGGUGAAUCUGCGAAUUCUGCUGU [A13C G17C]	0.122
GGGGGCCACAGCCGAAACGUUCACGUCGCGGCCCCUGUCAGAUUCUGGUGAAUCUGCGAAUUCUGCUGU [A13C G17A]	0.0886
GGGGGCCACAGCCGAAGCGUUCACGUCGCGGCCCGUGUCAGAUUCUGGUGAAUCUGCGAAUUCUGCUGU [A13C C35G]	0.323
GGGGGCCACAGCCGAAGCGUUCACGUCGCGGCCCUUGUCAGAUUCUGGUGAAUCUGCGAAUUCUGCUGU [A13C C35U]	0.751
GGGGGCCACAGCCGAAGCGUUCGCGUCGCGGCCCCUGUCAGAUUCUGGUGAAUCUGCGAAUUCUGCUGU [A13C A23G]	0.507
GGGGGCCACAGCCGAAGCGUUCUCGUCGCGGCCCCUGUCAGAUUCUGGUGAAUCUGCGAAUUCUGCUGU [A13C A23U]	0.788
GGGGGCCACAGCCGAAGCGUUCACGUCGCGUCCCCUGUCAGAUUCUGGUGAAUCUGCGAAUUCUGCUGU [A13C G31U]	0.508
GGGGGCCACAGCCGAAGCGUUCACGUCGCGACCCCUGUCAGAUUCUGGUGAAUCUGCGAAUUCUGCUGU [A13C G31A]	0.654
